Measured values as given in patent US20220125947A1 (published 2022).

Tests used:
[1] = target: T1, γδ T cell receptor on human γδ T cells (human); assay: flow cytometry, DRC binding 37 C, human γδ T cells
T1 construct: also called AG000003021 (γδ T cells)
Procedure: (§1) Binding of antibodies to human γδ T cells or SKW cell lines expressing Vγ9/Vδ2, Vγ9/Vδ2 or Vγ5/Vδ2 was carried out by flow cytometry. Briefly, the cells were centrifuged at 300×g for 5 minutes and the pellet was resuspended in 34 ml fresh media (in RPMI+10% FBS). 50 μL of the cells were then plated (44K cells/well) into assay plates. Samples were incubated for one hour at 37° C. in tissue culture (TC) incubator followed by wash steps by adding 100 μl FACS staining buffer. Secondary detention antibodies (A647 conjugated anti-human IgG Fc specific antibody (2 μg/mL) along with AF488 anti mouse CD3, clone OKT3 at 1 ug/mL) were added at 50 μL/well to appropriate wells according to the plate map. After incubating for 60 minutes at 37° C. in the TC incubator, cells were again washed as described above. This is followed by resuspension in 20 μL/well running buffer containing 1:1000 dilution of Sytox blue dead cell stain and the plates were run on iQue Screener.
(§2) Gating and data analysis: Human anti-human Vγ9 antibody (VG9B2 mAb at 10 nM) was used to mark the gating of positive population. All cells were first gated for singlets on SCS-A vs. SCS-H dot plot, live/dead followed by CD3 positive population, and this subset of CD3 positive population was gated for Vγ9 positive binding using positive control mAb. Cells were also assessed for cell binding of control mAbs by RL1 (A647) Geomeans from the live cell population. Advanced metrics were used and normalization metrics were chosen to calculate fold over background wells containing secondary antibody alone (designated as ‘background’ within ForeCyt settings).

[2] = target: T2, γδ T cell receptor on human γδ T cells (human); assay: flow cytometry DRC binding 37 C, human γδ T cells
T2 construct: whole, on cells; Target is the γδ TCR on a mixed population of human γδ T cells; also called AG000003021 (γδ T cells)
Procedure: as §1, §2

| Binder | Max. Activity [1] [fold over background] | Max. Activity [2] [fold over background] |
| --- | --- | --- |
| VG9B443 (antibody, human IgG1, lambda, IgG1, lambda) heavy: not shown light: QSALTQPASVSGSPGQSITISCTGTSSDVGGYNYVSWYQQHPGKAPKLMIYEVSNRPSGVSNRFSGSKSGNTASLTISGLQAEDEADYYCSSYTSTSVVFGGGTKLTVLGQPKAAPSVTLFPPSSEELQANKATLVCLISDFYPGAVTVAWKADSSPVKAGVETTTPSKQSNNKYAASSYLSLTPEQWKSHRSYSCQVTHEGSTVEKTVAPTECS | 1010 |  |
| VG9B455 (antibody, human IgG1, lambda, IgG1, lambda) heavy: not shown light: SYELTQPASVSGSPGQSITISCTGTSSDVGGYNYVSWYQQHPGKAPKLMIYEVSNRPSGVSNRFSGSKSGNTASLTISGLQAEDEADYYCSSYTSTSVVFGGGTKLTVLGQPKAAPSVTLFPPSSEELQANKATLVCLISDFYPGAVTVAWKADSSPVKAGVETTTPSKQSNNKYAASSYLSLTPEQWKSHRSYSCQVTHEGSTVEKTVAPTECS | 1000 |  |
| VG9B466 (antibody, human IgG1, lambda, IgG1, lambda) heavy: not shown light: SYELTQPASVSGSPGQSITISCTGTSSDVGGYNYVSWYQQHPGKAPKLMIYEVSNRPSGVSNRFSGSKSGNTASLTISGLQAEDEADYYCSSYTSTSVVFGGGTKLTVLGQPKAAPSVTLFPPSSEELQANKATLVCLISDFYPGAVTVAWKADSSPVKAGVETTTPSKQSNNKYAASSYLSLTPEQWKSHRSYSCQVTHEGSTVEKTVAPTECS | 946 |  |
| VG9B450 (antibody, human IgG1, lambda, IgG1, lambda) heavy: not shown light: QSVLTQPASVSGSPGQSITISCTGTSSDVGGYNYVSWYQQHPGKAPKLMIYEVSNRPSGVSNRFSGSKSGNTASLTISGLQAEDEADYYCSSYTSTSVVFGGGTKLTVLGQPKAAPSVTLFPPSSEELQANKATLVCLISDFYPGAVTVAWKADSSPVKAGVETTTPSKQSNNKYAASSYLSLTPEQWKSHRSYSCQVTHEGSTVEKTVAPTECS | 928 |  |
| VG9B438 (antibody, human IgG1, lambda, IgG1, lambda) heavy: not shown light: SYELTQPASVSGSPGQSITISCTGTSSDVGGYNYVSWYQQHPGKAPKLMIYEVSNRPSGVSNRFSGSKSGNTASLTISGLQAEDEADYYCSSYTSTSVVFGGGTKLTVLGQPKAAPSVTLFPPSSEELQANKATLVCLISDFYPGAVTVAWKADSSPVKAGVETTTPSKQSNNKYAASSYLSLTPEQWKSHRSYSCQVTHEGSTVEKTVAPTECS | 895 |  |
| VG9B464 (antibody, human IgG1, lambda, IgG1, lambda) heavy: not shown light: QSALTQPASVSGSPGQSITISCTGTSSDVGGYNYVSWYQQHPGKAPKLMIYEVSNRPSGVSNRFSGSKSGNTASLTISGLQAEDEADYYCSSYTSTSVVFGGGTKLTVLGQPKAAPSVTLFPPSSEELQANKATLVCLISDFYPGAVTVAWKADSSPVKAGVETTTPSKQSNNKYAASSYLSLTPEQWKSHRSYSCQVTHEGSTVEKTVAPTECS | 886 |  |
| VG9B437 (antibody, human IgG1, lambda, IgG1, lambda) heavy: not shown light: QSALTQPASVSGSPGQSITISCTGTSSDVGGYNYVSWYQQHPGKAPKLMIYEVSNRPSGVSNRFSGSKSGNTASLTISGLQAEDEADYYCSSYTSTSVVFGGGTKLTVLGQPKAAPSVTLFPPSSEELQANKATLVCLISDFYPGAVTVAWKADSSPVKAGVETTTPSKQSNNKYAASSYLSLTPEQWKSHRSYSCQVTHEGSTVEKTVAPTECS | 885 |  |
| VG9B457 (antibody, human IgG1, lambda, IgG1, lambda) heavy: not shown light: QAVLTQPASVSGSPGQSITISCTGTSSDVGGYNYVSWYQQHPGKAPKLMIYEVSNRPSGVSNRFSGSKSGNTASLTISGLQAEDEADYYCSSYTSTSVVFGGGTKLTVLGQPKAAPSVTLFPPSSEELQANKATLVCLISDFYPGAVTVAWKADSSPVKAGVETTTPSKQSNNKYAASSYLSLTPEQWKSHRSYSCQVTHEGSTVEKTVAPTECS | 865 |  |
| VG9B442 (antibody, human IgG1, lambda, IgG1, lambda) heavy: not shown light: QSALTQPASVSGSPGQSITISCTGTSSDVGGYNYVSWYQQHPGKAPKLMIYEVSNRPSGVSNRFSGSKSGNTASLTISGLQAEDEADYYCSSYTSTSVVFGGGTKVTVLGQPKAAPSVTLFPPSSEELQANKATLVCLISDFYPGAVTVAWKADSSPVKAGVETTTPSKQSNNKYAASSYLSLTPEQWKSHRSYSCQVTHEGSTVEKTVAPTECS | 856 |  |
| VG9B436 (antibody, human IgG1, lambda, IgG1, lambda) heavy: not shown light: QSVLTQPASVSGSPGQSITISCTGTSSDVGGYNYVSWYQQHPGKAPKLMIYEVSNRPSGVSNRFSGSKSGNTASLTISGLQAEDEADYYCSSYTSTSVVFGGGTKLTVLGQPKAAPSVTLFPPSSEELQANKATLVCLISDFYPGAVTVAWKADSSPVKAGVETTTPSKQSNNKYAASSYLSLTPEQWKSHRSYSCQVTHEGSTVEKTVAPTECS | 812 |  |
| VG9B434 (antibody, human IgG1, lambda, IgG1, lambda) heavy: not shown light: QSVLTQPASVSGSPGQSITISCTGTSSDVGGYNYVSWYQQHPGKAPKLMIYEVSNRPSGVSNRFSGSKSGNTASLTISGLQAEDEADYYCSSYTSTSVVFGGGTKLTVLGQPKAAPSVTLFPPSSEELQANKATLVCLISDFYPGAVTVAWKADSSPVKAGVETTTPSKQSNNKYAASSYLSLTPEQWKSHRSYSCQVTHEGSTVEKTVAPTECS | 804 |  |
| VG9B460 (antibody, human IgG1, lambda, IgG1, lambda) heavy: not shown light: QLVLTQPASVSGSPGQSITISCTGTSSDVGGYNYVSWYQQHPGKAPKLMIYEVSNRPSGVSNRFSGSKSGNTASLTISGLQAEDEADYYCSSYTSTSVVFGGGTKLTVLGQPKAAPSVTLFPPSSEELQANKATLVCLISDFYPGAVTVAWKADSSPVKAGVETTTPSKQSNNKYAASSYLSLTPEQWKSHRSYSCQVTHEGSTVEKTVAPTECS | 767 |  |
| VG9B189 (antibody, human IgG1, lambda, V domains shown, IgG1, lambda; specificity column: Vd2) VH: EVQLVQSGGGLVKPGASLKLSCAASGFTFSNHGMSWVRQTSDKRLEWVASITRGGDTTYYPDNVKGRFTISRENAKNTLYLQMSSLKSDDTALYYCTRGPLTVGYAMDYWGQGTTVTVSS VL: QSVVTQPPSASGSPGQSVTISCTGTSSDVGGYNYVSWYQQHPGKAPKLMIYEVSKRPSGVPDRFSGSKSGNTASLTVSGLQAEDEADYYCNSYAGSNNFEVFGGGTKVTVLG |  | 739 |
| VG9B53 (antibody, human IgG1, kappa, V domains shown, IgG1, kappa; specificity column: Vd2) VH: QVQLQESGPGLVKPSETLSLTCTVSGGSISSYYWSWIRQPAGKGLEWIGRIHTIGSINYNPSLKSRVTMSVDTSKNQFSLKLSSVTAADTAVYYCAMEGVGATNYYYGMAVWGRGTMVTVSS VL: not shown |  | 536 |
| VG9B41 (antibody, human IgG1, kappa, V domains shown, IgG1, kappa; specificity column: Vd2) VH: QVQLQESGPQLVRPGASVKISCKASGYSFTTYWMHWVKQRPGQGLEWIGLIDPSDSETRLNQKFKDKATLTVDKSSSTAYMRLSSPTSEDSAVYYCASNRWLLGWGQGTMVTVSS VL: EIVLTQTPLSSPVTLGQPASISCRSSQSLVHSDGNTYLSWLHQRPGQPPRLLIYKISNRFSGVPDRFSGSGAGTDFTLKISRVETEDVGVYYCVQTREFPLTFGGGTKVEIKR |  | 137 |
| VG9B136 (antibody, human IgG1, kappa, V domains shown, IgG1, kappa; specificity column: g/d constant) VH: QVQLQQSGPGLVKPSQTLSLTCAISGDSVSSNRAAWNWIRQSPSKGLEWLGRTYYRSKWYNEYAASVKSRMSINPDTSKNQFSLQLNSVTPEDTALYYCARDLWELREACDIWGQGTMVTVSS VL: DIVMTQSPSFLSTFVGDRVTITCRASQGISSYLAWYQQKPGKVPKLLIYVASTLQSGVPSRFSGSGSGTEFTLTISSLQPEDFATYYCQQLNSYPFTFGPGTKVDIKR |  | 2680 |
